Test results: the nanobody polyreactivity screen of Harvey et al. (2022)

Experiment: yeast display, Sf9 membrane polyspecificity reagent, FACS + sequencing; frameworks hold sequencing errors
In short: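 A nanobody's polyreactivity label depends on the gate it was sorted from. Yeast display cells were stained with 10% biotinylated, detergent-solubilized Sf9 membrane reagent for 1 hour at 4 °C, enriched on streptavidin microbeads and sorted by FACS. The low and high (top ~1%) gates were set on anti-HA fluorescence for expression and streptavidin fluorescence for reagent binding.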

Sequence	polyreactivity (PSR sort gate)
QVQLVESGGGLVQAGGSLRLSCAASGSIFDGYGMGWYRQAAGKERELVAGITSGGSTYYADSVKGRFTFSRDNAKNTVYLQMNSLIPEDTAVYYCATVVRYSNARGDYWGQGTQVTVSS	low polyreactivity
QVQLVESGGGLVQAGGSLRLSCAASGRTFGGNAMGWYRQAPGKERELVATIRSSSSTNYADSVKGRFTISRDNAKNTVYLQMNSLKPEDTAVYYCARRSQRGIYSMYYWGQGTQVTVSS	low polyreactivity
QVHLVESGGGLVQAGGSLRLSCAASGSTFNYNAMGWYRQAPGKERELVAAISGSGGSTYYADSVKGRFTISRDNAKNSVYLQMNSLKPEDTAVDYCAGLYGPGRAFDYWGQGTQVTVSS	low polyreactivity
QVQLVESGGGLHQAGGSLRLSCAASGSISGYNPMGWYRQAPGKESELVAVNTTDGSTNYADSVKGRFTISRDNAKNTVYLQMNSLKPEDTAVYYCNTHDGWRLLWEYDYWGQGTQVTVSS	low polyreactivity
QVQLVESGGGLVQAGGSLRLSCAASGFTFSNYAMGWYRQAPGKERELVAAISFRTGRTYYADSVKWRFTISRDNAKNTVFLQMNILKPEDTAVYYCAVQPYHSYLHNYWGQGTQVTVSS	high polyreactivity
QVQLVESGGGLVQAGGSLRLSCAASGRILRSYAMGWYRQAPGKERELVAAISWRGGSTYYADSVKGRFTISRDNAKNTVYLQMNSLKPEDTAVYYCAKRSYYPARYDYWGQGTQVTVSS	high polyreactivity
QVQLVESGGGLVQAGGSLRLSCAASGLIYFYAMGWYRQEPGKERELVAAISSSGGRTYYADSVKGRFTISRDNAKNTVYLQMNSLKPEDTAVYYCAVVSSHYKGPGRNGYDYWGQGTQVTVSS	high polyreactivity
QVQLVESGGGLVQAGVSLRLSCAASGGTFSRNAMGWYRQAPGKERELVAAINSSGVSTSYADSVKGRFTISRDNAKNTVYLQMNSLKPEDTAVYYCAAETSSAEVDYWGQGTQVTVSS	low polyreactivity
QVQLVESGGGLVQAGGSLSLSCAASGIISTYYVMGWYRQAPGKERELVAAITGGDSSTYYADSVKGRFTISRDNAKNTVYLQMNSLKPEDTAVYYCAKEYYYARGARYDYWGQGTQVTVSS	low polyreactivity
QVQLVESGGGLVQAGGSLRLSCAASGSIFGYYAMGWYRQAPGKERELVATITWGGGSTYADSVKGRFTISRDNAKNTVYLQMNSLKPEDTAVYYCNAGYRYTSAQVTWEYDYWGQGTQVTVSS	low polyreactivity
QVQLVESGGGLVQAGGSLRLSCAASGRIIPRNAMGWYRQEPGKERELVAGISRGGSTYYADSVKGRFTISRDNAKNSVYLQMNSLKPEDTAVYYCAAAYQKSPITPNMDYWGQGTQVTVSS	low polyreactivity
QVQLVESGGGLVQAGGSLRLSCAASGSIFYGNAMGWYRQAPGKERELVAAISESGGSTYYADSVKGRFTISRDNAKNTVYFQMNSLKPEDTAVYYCNSEAWGYYWWWGYDYWGHGTQVTVSS	low polyreactivity
QVQLVESGGGLVQAGGSLRLSCAASGFIFNYYAMGWYIQAPGKERELVAAISTNGGSTYYADSVKGRFTISRDNAKNTVYLQMNSLKPEDTAVYYCAARSYGVSGRYYRYTFGMDYWGQGTQVTVSS	high polyreactivity
QVQLVESGGGLVQPGGSLRLSCAASGFIFSYYVMGWYRQAPGKERELVAAITTSGDSTYYADSVKGRFTISRDNAKNSVYLQMNSLKPEDTAVYYCNTVYRYRYYWGQGTHVTVSS	high polyreactivity
QVQLVESGGGLVQARGSLRLSCAASGRTFGPYAMGWYRQAPGKERELVAAISSSEGSTYYADSVKGRFTISRDIAKYSVYLQMNSMKPEDTAVYYCNARYYLWSTTRWYGYDYWGQGTQVTVSS	high polyreactivity
QVQLVESGGGLVQAGGSLRLSCAASGFILLDNAMGWYRQAPGKEREFVASINISGDRTFYADSVKGRFTISRDNAKNTVYLQMNSLKPEDTAVYYCAKEPGWGRRSTTAYDYWGQGTQVTVSS	low polyreactivity

Sequence	polyreactivity (PSR sort gate)
QVQLVESGGGLVQAGGSLRLSCAASGFTYYYYAMGWSRQAPGKVRELVAAITYSGGSTYYADSVKGRFTISRDNAKNTVYLLMNSLKPEDTAVYYCNAVVGRWFPFNLSDYWGQGTQVTVSS	low polyreactivity
QVQLVESGGGLVQAGGCLRLSCAPSGFIFGGYAMGWDRPAPGKEREVVAAISSSGGSTYYADSVKGRFTISRDNAKNTVYLQMNSLKPEDTAVYYCAARIQSVSSGRWFDYWGQGTQVTVSS	high polyreactivity
QVQLVESGGGLVQAGGSLRLSCAASGHIFIRYAMGWYRQAPGKDRELVAASTGSGGSTYYADSVKGRFTISRDYAKNTVYLQMNSLKPEDTAVYYCAARTSKKYVPYDYWGQGTQVTVSS	high polyreactivity
QVQLVESGGGLVQAGGSLRLSCAASGIIFGQNAMGWSRQSPGKESEVVAAITISGGSTYYADSVKGRFTISRDNAKNTVYLQMNSLKPEDTAVYYCAARRVTWKVIARGYRYGYWGQGTQVTVSS	low polyreactivity
QVQLVESGGGLVQAGGSLRLSCAASGSTYRLYTMGWYRQAPGKERELVAAITSGGSTNYADSVKGRFTISRDNAKNTVYLQMYSLKPEDTAVYYCAKAKRFPSFDYWGQGTQVTVSS	low polyreactivity
QVQLVESGGGLVQAGGSLRLSCAASGPTFPFNAMVWYRQAPGKERELVAAISWRDGRTYYADSVKGRFTISRDNAKNTVYLQMNSLKPEDTAVYYCNVVKRRSDWGMVYWGQGTQVTVSS	high polyreactivity
QVQIVESGGGLVQAGGSLRLSCAASGRNFGANAMGWYRQAPGKERELVASISSSGSRTYYAVSVKGRFTISRDNAKNTVSLQMNSLKPEDSAVYYCAARYWIYRSEYDYWGQGTQVTVSS	high polyreactivity
QVQLVESGGGLVQAGGSLRLSCAASGRTFYWYAMGWYRQAPGKERELVAGISSGGGTYYADSVKGRFTISRDNAKNTVYLQMNSLKPEDTAVYYCAAAWENIWVWQEYIEYDYWGQGTQVTVSS	low polyreactivity
HVQLVESGGGLVQAGASLRLSCAASGRIFGRNAMGWYRQAPGKERELVAAISGNGGSTYYADSVKGRFTISRDIAKNTVYLQMNSLKPEDTAGYYCATKYFSRMDYWGQGTQVTVSS	high polyreactivity
QVQLQESGGGLVQAGGSLRLSCASSGSISILQSMGWYRQAPGKERELVAGINWGATTYYADSVKGRLTTSRDYAKNTVYLQMNSLKPEDTGVYYCAVPTYYTYPLLYWGQGTQVTVSS	low polyreactivity
QVQLVESGGGLVQAGGSLRLSCAATGSTFFIYAMGWYRQAPGKERELVAAISGSGGTTYYADSVKGRFTISRDNAKNTVYLHMNSLKPEDTAVYYGAARTFSAFWRGGYDYWGQGTQVTVSS	low polyreactivity
QVQLVESGGGLVQAGGSLRLSCAASGSFYDRYVMGWYRQAPGKERELVAAISSSGGSTYYADSVKGRFTISRDNAKNTVYFQMNSLKPEDSAVYYCAAKFSYGRYNYWGQGTQVTVSS	high polyreactivity
QVQLVESGGGLVQAGGSLSLSCAASGIIIRRYAMGWYRQAPRKERELVATITWSGGSTYYADSVKGRFTISRDNAKNTVYLQMNSLKPEDTAVDYCAKLTSYRGRYNYWGQGTQVTVSS	high polyreactivity
QVQLVESAGGIVQAGGSLRLSCAASGSTFGVYAMGLYRQAPGKERELVASISSGDSTTYADSVKGRFTISRDNAKNTVYFQMNSLKPDVTAVYYCNAVYYTGYYWGHGTQVTVSS	low polyreactivity
HVQHVESGGGLVQAGGSLRLSCAASGRIFRPNAMGRYRQAPGKERELVAAITSNGGRTYYADSVKGRFTISRDNAKTTVYLQMTSQKPEDTAVYYCNAAPFRSGYGYWGQGTQVNVSS	high polyreactivity
QVQLVESGGGLVQAGGSLRLSCAASGYTFGSYAMGWYRQAPGKERELVAAISGGGSTNYADSVKGRFTISRDNAKNTVYLQMNSLKPEDTAVYYCAADIRWGQGTQVTVSS	low polyreactivity
